Test results from the Human Domainome abundance scans (Beltran et al. 2025).
± gives the uncertainty stated by the source.

B1: Metastasis-associated protein MTA3, residues 265 to 317; numbered along this chain, Q9BTC8 (parent)
chain: RDEMEEWSASEASLFEEALEKYGKDFNDIRQDFLPWKSLTSIIEYYYMWKTTD

Variants of: B1
Assay: abundance fitness (aPCA) (normalised: wild type 0, dead -1); higher = more abundant; growth selection in yeast, the domain comes from the species named
Settings: Homo sapiens

Variant	abundance fitness
RDEMEEWSASEASLFEEAVEKYGKDFNDIRQDFLPWKSLTSIIEYYYMWKTTD [L19V]	0.113 ± 0.068
RDEMEEWSASEASLFEEAWEKYGKDFNDIRQDFLPWKSLTSIIEYYYMWKTTD [L19W]	0.043 ± 0.12
RDEMEEWSASEASLFEEAYEKYGKDFNDIRQDFLPWKSLTSIIEYYYMWKTTD [L19Y]	0.49 ± 0.11
RDEMEEWSASEASLFEEALAKYGKDFNDIRQDFLPWKSLTSIIEYYYMWKTTD [E20A]	0.007 ± 0.093
RDEMEEWSASEASLFEEALCKYGKDFNDIRQDFLPWKSLTSIIEYYYMWKTTD [E20C]	-0.682 ± 0.2
RDEMEEWSASEASLFEEALDKYGKDFNDIRQDFLPWKSLTSIIEYYYMWKTTD [E20D]	-0.283 ± 0.12
RDEMEEWSASEASLFEEALFKYGKDFNDIRQDFLPWKSLTSIIEYYYMWKTTD [E20F]	-0.54 ± 0.11
RDEMEEWSASEASLFEEALGKYGKDFNDIRQDFLPWKSLTSIIEYYYMWKTTD [E20G]	-0.321 ± 0.13
RDEMEEWSASEASLFEEALHKYGKDFNDIRQDFLPWKSLTSIIEYYYMWKTTD [E20H]	-0.499 ± 0.13
RDEMEEWSASEASLFEEALIKYGKDFNDIRQDFLPWKSLTSIIEYYYMWKTTD [E20I]	-0.267 ± 0.091
RDEMEEWSASEASLFEEALLKYGKDFNDIRQDFLPWKSLTSIIEYYYMWKTTD [E20L]	-0.126 ± 0.073
RDEMEEWSASEASLFEEALMKYGKDFNDIRQDFLPWKSLTSIIEYYYMWKTTD [E20M]	-0.561 ± 0.15
RDEMEEWSASEASLFEEALNKYGKDFNDIRQDFLPWKSLTSIIEYYYMWKTTD [E20N]	-0.303 ± 0.15
RDEMEEWSASEASLFEEALPKYGKDFNDIRQDFLPWKSLTSIIEYYYMWKTTD [E20P]	-0.864 ± 0.14
RDEMEEWSASEASLFEEALSKYGKDFNDIRQDFLPWKSLTSIIEYYYMWKTTD [E20S]	-0.366 ± 0.075
RDEMEEWSASEASLFEEALTKYGKDFNDIRQDFLPWKSLTSIIEYYYMWKTTD [E20T]	-0.262 ± 0.077
RDEMEEWSASEASLFEEALVKYGKDFNDIRQDFLPWKSLTSIIEYYYMWKTTD [E20V]	-0.213 ± 0.13
RDEMEEWSASEASLFEEALWKYGKDFNDIRQDFLPWKSLTSIIEYYYMWKTTD [E20W]	-0.613 ± 0.17
RDEMEEWSASEASLFEEALYKYGKDFNDIRQDFLPWKSLTSIIEYYYMWKTTD [E20Y]	-0.506 ± 0.13
RDEMEEWSASEASLFEEALECYGKDFNDIRQDFLPWKSLTSIIEYYYMWKTTD [K21C]	-0.683 ± 0.34
RDEMEEWSASEASLFEEALEDYGKDFNDIRQDFLPWKSLTSIIEYYYMWKTTD [K21D]	-0.579 ± 0.21
RDEMEEWSASEASLFEEALEEYGKDFNDIRQDFLPWKSLTSIIEYYYMWKTTD [K21E]	-0.867 ± 0.29
RDEMEEWSASEASLFEEALEFYGKDFNDIRQDFLPWKSLTSIIEYYYMWKTTD [K21F]	-0.504 ± 0.16
RDEMEEWSASEASLFEEALEGYGKDFNDIRQDFLPWKSLTSIIEYYYMWKTTD [K21G]	-0.842 ± 0.17
RDEMEEWSASEASLFEEALEHYGKDFNDIRQDFLPWKSLTSIIEYYYMWKTTD [K21H]	-0.674 ± 0.17

Variant	abundance fitness
RDEMEEWSASEASLFEEALEIYGKDFNDIRQDFLPWKSLTSIIEYYYMWKTTD [K21I]	-0.418 ± 0.22
RDEMEEWSASEASLFEEALELYGKDFNDIRQDFLPWKSLTSIIEYYYMWKTTD [K21L]	-0.483 ± 0.084
RDEMEEWSASEASLFEEALEMYGKDFNDIRQDFLPWKSLTSIIEYYYMWKTTD [K21M]	-0.763 ± 0.18
RDEMEEWSASEASLFEEALENYGKDFNDIRQDFLPWKSLTSIIEYYYMWKTTD [K21N]	-0.984 ± 0.35
RDEMEEWSASEASLFEEALEPYGKDFNDIRQDFLPWKSLTSIIEYYYMWKTTD [K21P]	-0.804 ± 0.1
RDEMEEWSASEASLFEEALEQYGKDFNDIRQDFLPWKSLTSIIEYYYMWKTTD [K21Q]	-0.685 ± 0.1
RDEMEEWSASEASLFEEALERYGKDFNDIRQDFLPWKSLTSIIEYYYMWKTTD [K21R]	-0.381 ± 0.11
RDEMEEWSASEASLFEEALESYGKDFNDIRQDFLPWKSLTSIIEYYYMWKTTD [K21S]	-0.745 ± 0.083
RDEMEEWSASEASLFEEALETYGKDFNDIRQDFLPWKSLTSIIEYYYMWKTTD [K21T]	-0.443 ± 0.12
RDEMEEWSASEASLFEEALEVYGKDFNDIRQDFLPWKSLTSIIEYYYMWKTTD [K21V]	-0.444 ± 0.13
RDEMEEWSASEASLFEEALEWYGKDFNDIRQDFLPWKSLTSIIEYYYMWKTTD [K21W]	-0.801 ± 0.11
RDEMEEWSASEASLFEEALEYYGKDFNDIRQDFLPWKSLTSIIEYYYMWKTTD [K21Y]	-0.571 ± 0.17
RDEMEEWSASEASLFEEALEKAGKDFNDIRQDFLPWKSLTSIIEYYYMWKTTD [Y22A]	-0.687 ± 0.18
RDEMEEWSASEASLFEEALEKCGKDFNDIRQDFLPWKSLTSIIEYYYMWKTTD [Y22C]	0.26 ± 0.091
RDEMEEWSASEASLFEEALEKDGKDFNDIRQDFLPWKSLTSIIEYYYMWKTTD [Y22D]	-1.07 ± 0.36
RDEMEEWSASEASLFEEALEKEGKDFNDIRQDFLPWKSLTSIIEYYYMWKTTD [Y22E]	-0.856 ± 0.31
RDEMEEWSASEASLFEEALEKGGKDFNDIRQDFLPWKSLTSIIEYYYMWKTTD [Y22G]	-0.625 ± 0.15
RDEMEEWSASEASLFEEALEKHGKDFNDIRQDFLPWKSLTSIIEYYYMWKTTD [Y22H]	-0.079 ± 0.093
RDEMEEWSASEASLFEEALEKIGKDFNDIRQDFLPWKSLTSIIEYYYMWKTTD [Y22I]	0.078 ± 0.26
RDEMEEWSASEASLFEEALEKKGKDFNDIRQDFLPWKSLTSIIEYYYMWKTTD [Y22K]	-0.72 ± 0.17
RDEMEEWSASEASLFEEALEKLGKDFNDIRQDFLPWKSLTSIIEYYYMWKTTD [Y22L]	-0.536 ± 0.12
RDEMEEWSASEASLFEEALEKMGKDFNDIRQDFLPWKSLTSIIEYYYMWKTTD [Y22M]	-0.792 ± 0.11
RDEMEEWSASEASLFEEALEKNGKDFNDIRQDFLPWKSLTSIIEYYYMWKTTD [Y22N]	-0.712 ± 0.22
RDEMEEWSASEASLFEEALEKPGKDFNDIRQDFLPWKSLTSIIEYYYMWKTTD [Y22P]	-0.707 ± 0.17
